2 molecules from PMC7432852, “2-Ketoglutarate-Generated In Vitro Enzymatic Biosystem Facilitates Fe(II)/2-Ketoglutarate-Dependent Dioxygenase-Mediated C–H Bond Oxidation for (2S,3R,4S)-4-Hydroxyisoleucine Synthesis” (International Journal of Molecular Sciences, 2020) can be followed below.

As a reminder, the Km is the concentration of substrate that gives half-maximal velocity. The term Vmax denotes the rate approached at saturating substrate. By kcat is commonly meant the number of substrate molecules converted per active site and unit of time at saturation.

The subject of data set [1] is LGOX (L-glutamate oxidase). The conditions noted are these: 50 mM Tris-HCl pH 7.0, 30 °C; L-Glu 0.5–20 mM. The source says: initial rate of 2-KG formation by HPLC, catalase present, Michaelis-Menten fit on LGOX (L-glutamate oxidase)
Substrate in data set [2]: O=C(O)CCC(=O)C(=O)O
The data set is described as follows: initial rate of 4-HIL formation by HPLC, Michaelis-Menten fit. The data set is classed as biochemical, Bacillus thuringiensis. The conditions noted are these: 50 mM Tris-HCl pH 7.0, 30 °C, co-substrate L-Ile, FeSO4, L-ascorbic acid, 2-KG 1–40 mM. The source says:
(§1) initial rate of 4-HIL formation by HPLC, Michaelis-Menten fit on IDO (L-Ile dioxygenase)

Substrate in data set [3]: CC[C@H](C)[C@H](N)C(=O)O
The data set is described as above. The data set is classed as biochemical, Bacillus thuringiensis. The following applies: 50 mM Tris-HCl pH 7.0, 30 °C, co-substrate 2-KG, FeSO4, L-ascorbic acid, L-Ile 0.5–20 mM.
Source text: as §1

`N[C@@H](CCC(=O)O)C(=O)O` [L-Glu]: the Michaelis-Menten constant (Km) in data set [1] came to 2.65 ± 0.11 mM.

B1: IDO (L-Ile dioxygenase) (Bacillus thuringiensis) (protein)
chain: MKMSGFSIEEKVHEFESKGFLEISNEIFLQEEENHSLLTQAQLDYYNLEDDAYGECRARSYSRYIKYVDSPDYILDNSNDYFQSKEYNYDDGGKVRQFNSINDSFLCNPLIQNIVRFDTEFAFKTNIIDKSKDLIIGLHQVRYKATKERPSFSSPIWLHKDDEPVVFLHLMNLSNTAIGGDNLIANSPREINQFISLKEPLETLVFGQKVFHAVTPLGTECSTEAFRDILLVTFSYKETK
Consider B1, for which, in data set [2], the Michaelis constant (Km) is 15.12 ± 0.08 mM, the maximal velocity (Vmax) amounted to 19.8 µmol/min/mg and the kcat stood at 9.18 ± 0.07 s⁻¹. Further, in data set [3], the Michaelis-Menten constant (Km) amounted to 6.34 ± 0.12 mM, the Vmax stood at 8.99 µmol/min/mg and the kcat amounted to 4.18 ± 0.08 s⁻¹.
